How the values were obtained:
[1] = biological target: CelB tetramer (Pyrococcus β-glucosidase CelB, isolated sample imaged by cryo-EM) (Pyrococcus furiosus) (UniProt Q51723); assay: cryo-EM structure
[2] = biological target: bacteriophage P22 coat protein (Salmonella typhimurium bacteriophage P22) (UniProt P26747); assay: SEC-MALS
Chain of UniProt P26747 (P26747 whole entry): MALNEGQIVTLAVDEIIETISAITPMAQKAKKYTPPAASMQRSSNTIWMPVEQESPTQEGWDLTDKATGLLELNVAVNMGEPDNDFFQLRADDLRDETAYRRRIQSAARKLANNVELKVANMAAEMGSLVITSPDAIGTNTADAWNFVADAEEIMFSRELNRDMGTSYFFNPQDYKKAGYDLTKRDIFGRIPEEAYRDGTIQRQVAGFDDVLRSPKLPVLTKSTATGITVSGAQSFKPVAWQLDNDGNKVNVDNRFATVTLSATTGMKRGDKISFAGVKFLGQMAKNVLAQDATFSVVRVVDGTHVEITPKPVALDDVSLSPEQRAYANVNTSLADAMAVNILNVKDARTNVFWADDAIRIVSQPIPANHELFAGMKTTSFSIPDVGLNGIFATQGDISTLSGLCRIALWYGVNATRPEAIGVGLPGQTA

| stoichiometry N [1] | #Cargo/capsid [2] | Substance |
| --- | --- | --- |
| 4 |  | CelB tetramer (Pyrococcus β-glucosidase CelB, isolated sample imaged by cryo-EM) (from UniProt Q51723 2-472) (enzyme) |
|  | 224 cargo/capsid | EGFP fused to N-terminal-truncated P22 scaffold protein |

— publication PMC4861311
